According to the supplement of paper PMC9170038:

Tested on: K4 kissing-loop RNA reporter
Experiment: apparent KD of K4 kissing-loop reporter; higher = weaker reporter binding
Settings: Eterna round: R107
Description: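 RNA-MaP round R107: designed RNA switches with theophylline, tryptophan, arginine or FMN aptamers are transcribed on-chip within common flanks. They are titrated with a labelled K4 kissing-loop RNA reporter in RNA-MaP buffer (100 mM Tris pH 7.5, 80 mM KCl, 4 mM MgCl2), without ligand or with the indicated ligand. Median apparent KD per design.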

[1] = input ligand: theophylline 20 uM
[2] = input ligand: tryptophan 2.4 mM
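Also: bound reporter read as fluorescence of individual clusters on recovered sequencing chips by microscopy, with normalized cluster intensities fitted with a binding model.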

Sequence | apparent KD of K4 kissing-loop reporter (input ligand: FMN 200 uM) [nM] | apparent KD of K4 kissing-loop reporter (input ligand: arginine 13.2 mM) [nM] | apparent KD of K4 kissing-loop reporter (input ligand: none) [nM] | apparent KD of K4 kissing-loop reporter [1] [nM] | apparent KD of K4 kissing-loop reporter [2] [nM]
ACCAUCAAAGAUGGCCAGGACUCCGCUGAUACCAGAGUGAAAACACUCCCUUGGCAGCAGGUGAGUGAUGUUCACAAGUCCUGGA [Omel KL Theo A SS B v5] | 1160 | 693 | 1860 | 981 | 857
AGACUUCACCGAAGGAGCGACGUAGCCUAGUGAUGUUAGGCAAGAGAGAAAUCUCUUAAACGUCAGGUAGGUCGCGGUGAAGUCA [Omei KL Arginine B SS C v3] | 262 | 163 | 202 | 227 | 190
GUAGUGAUGUUACGAGUAUUCCAUCGUAGAGAGGAUAUGGUUCCUUCCAGAAGGUUCUGAGAAUUAAAAUUUGAUAAAAUGAGGG [Exclusion FMN A GF 2] | 304 | 251 | 390 | 392 | 252
CAGAUAACCUAGGAUACCAGCGUCGCUGACAGGUCGCUGGAGAAGUACAGUGAUGUUGUGCGCCCUUGGCAGCCUGUUUACACAG [theeternabot_exclusion_KL_Theo_B_32] | 255 | 204 | 223 | 207 | 198
UUUUAAUAAGAGGAUACCAGUACAAAUAAAGUACAUUAAUAGUAGAGUGAUGUUCUAAAGUACCCUUGGCAGCUUAGAGUAAGUU [ExTheophylB.B] | 123 | 242 | 156 | 260 | 99.8
CCGAGUAGCUCCGAUACCAGCACAAUCGUUCAAUGAUCCAUGCGCAAGUGAUGUUUGCGUUGCCCUUGGCAGCGGGCAAAAGCUU [theeternabot_sameState_KL_Theo_B_2] | 61.3 | 90 | 72.4 | 86.5 | 78.6
UGUCAUGGAAACAUGAACGUUGAUGUUCGACGAGGACCGGUACGGCCGCCACUCGAGUAAUAGUCAGUGAUGUUGACUUGUUUAA [KL-SSTryp-A form1 sub4] | 49.4 | 101 | 69.1 | 90.9 | 55.6
CUGUUGUAGACUGAUACCAGUCUCACAGCAGAUGUGUGGGACUUAGUGAUGUUAAGUACCGACCCUUGGCAGCAGUCUACGACCU [Theo B SS t6] | 428 | 374 | 377 | 452 | 394
UGAUACCAGACGGCCGCCACUAGGACCGGGAGUGAUGUUCCCAAAUUAAAAUACUCGGCCGCCACUAGGACCGGGUCUGGUAUCU [TrypBX 26 #DoubleAptamer #SwitchBubble] | 244 | 269 | 295 | 360 | 113
GGAUCCACCAGUGAUGUUGGAGAAAACUUCAAGGAUAUGACGAAAGUCAGAAGGUGGUAGACUGGACAAAGUCCGGUAGGAUCCA [FmnA10 U29+A78] | 604 | 395 | 490 | 570 | 528
AAUGUUAGCAAAGGAUAUCUGAUGAGUGAUGUUUACGGACCGUUUGCGUUUCAUUACACGCAGCUCAGAGAAGGUUGGUGUGCAG [theeternabot_exclusion_KL_FMN_B_49] | 1230 | 866 | 1180 | 890 | 961
AGAACUGUCUGAGAUACCAGCCGAGGAGUGAUGUUCCGGCUCGACGAAACGUCGAGCCACGGCCCUUGGCAGCUCAGACAGUUCA [Omei KL Theo B SS A v1] | 1360 | 287 | 647 | 1060 | 455
UAAUUUAUAACUUUUAUAUAAUAAUCAGAUACCAGUGAUUAAUGUCACCCUUGGCAGCUGUAUAGAGUGAUGUUCUAAUGCUUAA [JR_SSTheophyA_Sub023] | 204 | 198 | 147 | 223 | 149
GUUAUGGACCUGGAUACCAGCUGGUACUAAGUGGGAAAAUGAAAGUGAUGUUUUCGUGCUAGCCCUUGGCAGCCAGCAACCCGCA [XTheo-B6] | 120 | 124 | 121 | 133 | 110
AAUGCAUAGUGAAGGAGCGCGAUAAGCAGUGAUGUUGCUUAGUUAUAAGUGUUUAUUUAUUCGCAGGUAGGUCGCACUUUGCAUA [JR_ExcArginiB_Sub019] | 147 | 111 | 124 | 117 | 132
GUAGCUUGGCUAGGAUAUUAGCGUAGGAGUGAUGUUCCGACUAGCGAAAGCUAGUCUCACGCUAGUUAAGAAGGAGCCAAGCUAC | 263 | 172 | 175 | 181 | 174

Sequence | apparent KD of K4 kissing-loop reporter (input ligand: FMN 200 uM) [nM] | apparent KD of K4 kissing-loop reporter (input ligand: arginine 13.2 mM) [nM] | apparent KD of K4 kissing-loop reporter (input ligand: none) [nM] | apparent KD of K4 kissing-loop reporter [1] [nM] | apparent KD of K4 kissing-loop reporter [2] [nM]
AAGAGGACCAACAUCACUAGUCCUCGAAUACGAGGACCGGUACGGCCGCCACUCGAUAACUUGCAGUGAUGUUGCAAGUAAGAAU [(T)''-(K)'-(T)'-(T1)-(T2)-(K1)-(K2)_Design3] | 369 | 253 | 307 | 345 | 439
UUAGCAGUAUACUGCAAGACCUAUACUGAUACCAGAGUCAAUUGACUCCCUUGGCAGCGGAUCGAGUGAUGUUCGUAAGGUCAUU [AK4.2 SS Theophylline A] | 743 | 647 | 955 | 792 | 685
AAGCAUUCUUCGGAAUGCAGACCCGCUGAGGAGGAUAUGACGAAAGUCAGAAGGUCUCAGUGAUGUUGAGGCCUCCUCAAUGGUC [whbob_Ex_FMNA__2th181] | 212 | 160 | 155 | 160 | 162
GCAGUGAUGUUGCACGAGUACGGUAGAGUACGAGGACCGGUACGGCCGCCACUCGUACGGAACUGGCUAAUUUAUGGAAUGGUGA [II] | 383 | 463 | 1440 | 477 | 365
GAUAAUUACGUAGGAUAUCCAUAUCCGCGGUCUUGAUGGAUUUUUACGAUCCAGUGAUGUUGGAUUGGAGAAGGACGGAGGCAAA [Arquedis] | 289 | 392 | 403 | 435 | 362
UGCAGUGAUGUUGCUAUUUUUCUUGAUUAACGAGGACCGGUACGGCCGCCACUCGAUUUCUCUCUAAUCCAGUAUGUUGUUUAAU [whbob_EX_Tryp_A_t4] | 114 | 137 | 114 | 143 | 86.1
GUAGCUAAAGAAGGAUAUCGGAUCCAAAUCAAGCAGUGAUGUUGCGUGAAGAUCGGCUCCAUGCCGCGAGAAGGUCUUUUCUGUU [theeternabot_sameState_KL_FMN_B_18] | 179 | 305 | 207 | 284 | 147
GGUGCGGGCUCGGCCGCCACUCCCGCGGGUCGUAAGGUCCGCUACUGAGUGAUGUUCGGUUGGAGGAGGACCGGGAGCCCGUGCC [#2 Exclusion - Tryptophan B Attempt #19 (HarryS)] | 115 | 113 | 106 | 85.3 | 106
UAUAGGGAUAGUGAUGUUAUCCCAUGUGAUACCAGUGCCAUCCAACACCCUUGGCAGCAUACGGGCAGUGAUGUUGUUCUUGGUA [Exclusion Theophylline A GF 14] | 102 | 88.9 | 99.1 | 89.5 | 97.2
GGAUUCGGCACGGCCGCCACUUCCGGUGGCUGGUGUCAUGGUGCGCGUGAGUGAUGUUUAUGUGGGAGGACCGGGUGUUGAGUCC [whbob_Ex_Tryp_B_w44] | 1020 | 433 | 834 | 1000 | 502
AACUGUCAAGGACAACAUUACUGAAGUGAUACCAGCAUCGAAAGAUGCCCUUGGCAGCACUAACUUGCAGUGAUGUUGCAAGUAA [BrourdMod 3 - Jieux - Exclusion - Theophylline A] | 207 | 165 | 184 | 202 | 190
GCAUCCUCUGCAGGAUAUCGCGGAGUGAUGUUCCGCGCAUGCCAUAGCGAAAGCUAUGGCAUGCGACGAGAAGGGCAGAGGAUGC | 165 | 124 | 147 | 157 | 138
GCGCGGGAGUGAUGUUCCAAGUGGUGUUAGCGAGGACCGGUACGGCCGCCACUCGUUACGGGCGGCCCGUAGGAUACACUGGCGC [Same State - Tryptophan A (Freestyle 18)] | 431 | 399 | 430 | 560 | 392
CUUCGAUUAACAGAUACCAGUCAUACUGGAGCCUCACUCGAGUGAGUGAUGUUCACUUGAGACCCUUGGCAGCUGUUAGUCGAAG [Theo B Ex t1a] | 92.3 | 86.2 | 89.6 | 106 | 93.4
UAUGGAGUGAUGUUCCGUAUGACUGUCGAUACCAGCCUGUGCCUUGGCCCUUGGCAGCGAAAAGCAUCGGCUAAUGUCGCGUCAU [Onaraed] | 201 | 191 | 194 | 221 | 184
AGUGUCAGUGAUGUUGAGAAGAUGGGUACUAAGGAUAUGCGGCGAUGCAGAAGGUAGAAUGAUUAGUUCGCAUGUUAUGAGGGAU [theeternabot_exclusion_KL_FMN_A_46] | 484 | 364 | 573 | 487 | 336
